From the nanobody polyreactivity screen of Harvey et al. (2022) come the findings set out here.

The series is described as follows: yeast display, Sf9 membrane polyspecificity reagent, FACS + sequencing; frameworks hold sequencing errors. In outline: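 Polyreactivity labels are assigned by the sorting gate from which each nanobody was recovered. The gates were low and high (top ~1%), set on anti-HA fluorescence for expression and streptavidin fluorescence for reagent binding. Before sorting, galactose-induced (36–48 hours) yeast display cells were stained for 1 hour at 4 °C with 10% biotinylated, detergent-solubilized Sf9 membrane reagent.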
Regarding “QVQLVESGGGLVQAGGSLRLSCAASGFTLFTNAMGWYRQAPGKERELLARISLGGSTKYADSVKGRFTISRDNAKNTVYVQMNSLKPEDTAVYYCATGYYGYRYGYWGQATQVTVSS”, the “polyreactivity (PSR sort gate)” value is reported as “high polyreactivity”.

As for “QVQLVESGGGLVQAGGSLRLSCAASGFTLFVYTMGWYRQAPGKERELVAAISSGDSTYYADSVKGRFTISRDNAKNTVYLQMNSLKPEDTAVYYCAAEWSGEAAWQVGAEDDYWGQGTQVTVSS”, the “polyreactivity (PSR sort gate)” value is recorded as “low polyreactivity”. For the sequence “QVQLVESGGGLVQAGGSLRLSCAASGFTLFYNAMGWYRQAPGKERELVAAITARGGGTYYADSVKGRFTISRDNAKNTVYLQMNSLKPEDTAVYYCNAGQNQRVDRTDPYDYWGQGTQVTVSS”, the “polyreactivity (PSR sort gate)” value is reported as “low polyreactivity”.

Regarding “QVQLVESGGGLVQAGGSLRLSCAASGFTLGFNAMGWYRQAPGKERELVAAITIGGTTYYADSVKGRFTISRDNAKNTVYLQMNSLKPEDTAVYYCAAARFLWFYVYTTRVQRYGYWGQGTQVTVSS”, the “polyreactivity (PSR sort gate)” value is recorded as “low polyreactivity”. The result for “QVQLVESGGGLVQAGGSLRLSCAASGFTLGGNAMGWYRQAPGKERELVAAITFSGGSTYYADSVKGRFTISRDNAKNIVYLQMNSLKPEDTAVYYCAKTHGYYYYYTYDYWGQGTQVTVSS” reads “low polyreactivity”. With “QVQLVESGGGLVQAGGSLRLSCAASGFTLGWYAKGWYRQAPGKERELVASINWDGGSTYYADSVKVRFTISRDNAKNTVYLPMNSLKAEDTAVDYWAAPPGGGGGIGYDSWGQGTQVTVSS”, the “polyreactivity (PSR sort gate)” value is “high polyreactivity”. The result for “QVQLVESGGGLVQAGGSLRLSCAASGFTLGWYVMGWYRQAPGKERELVAGISWSGGNTYYADSVKGRFTISRDNAKNTVYLQMHSLKPEDTAVYYCNADRTYPDYDYWGQGTQVTVSS” reads “low polyreactivity”. The result for “QVQLVESGGGLVQAGGSLRLSCAASGFTLGYYTMGWYRQAPGKERELVAAIRSNGGSTYYADSVKGRFTISRDNAKNTVYLQMNSLKPEDTAVYYCAADHAYFLTHSSYLFYYWGQGTQVTVSS” reads “high polyreactivity”; that for “QVQLVESGGGLVQAGGSLRLSCAASGFTLHSYAMGWYRQAPGKERELVAAITTGGSTYYADSVKGRFTISRDNAKNTVYLQMNSLKPEDTAVYYCAAEDPGPYGGYDYWGQGTQVTVSS”, “low polyreactivity”.

Consider “QVQLVESGGGLVQAGGSLRLSCAASGFTLLGYAMGWYRQAPGKERELVAAISRGGNTYYADSVKGRFTISRDNAKNTVYLQMNSLKPEDTAVYNCAAQTYSTGYVTRFNYWGQGTQVTVSS”, for which the “polyreactivity (PSR sort gate)” value is “high polyreactivity”.

Turning to “QVQLVESGGGLVQAGGSLRLSCAASGFTLLPNALGWYRQAPGKERELVAAITASGGRTYYADSVKGRFSISRDNAKNTVYLLMKSLKPVDTAVYDCTAGVYYYTPYTRMDYWGQGTQVTVAS”, the “polyreactivity (PSR sort gate)” value was “low polyreactivity”. In the case of “QVQLVESGGGLVQAGGSLRLSCAASGFTLLTYVMGWYIQAPGKERELVAAISKSGSRTYYADSVKGRFTISRDNAKNTVYLQMNSLKPEDTAVYYCAADTSAYRYDYWGQGTQVTVSS”, the “polyreactivity (PSR sort gate)” value was “high polyreactivity”. “QVQLVESGGGLVQAGGSLRLSCAASGFTLLTYVMGWYRQAPGKERELVAAITSSGGRTYYADSVKGRFTISRDNAKNTVYLQMNSLKPEDTAVYYCAAVGWGSSYRARYGYWGQGTQVTVSS”: the “polyreactivity (PSR sort gate)” value is listed as “high polyreactivity”. Take “QVQLVESGGGLVQAGGSLRLSCAASGFTLPLYAMGWYRQAPGKERELVATISSGGTTYYADSVKGRFTISRDNAKNTVYLQMNSLKPEDTAVYYCNTLRQLGRPFYYWGQGTQVTVSS”: the “polyreactivity (PSR sort gate)” value is “high polyreactivity”. Take “QVQLVESGGGLVQAGGSLRLSCAASGFTLQPYAMGWYRQAPGKERELVAAISSRGGRTYYADSVKGRFTISRDNAKNTVYLQMNSLKPEDTAVYYCAATGGYVYPRSRLYYYWGQGNQVTVSS”: the “polyreactivity (PSR sort gate)” value was “high polyreactivity”.

Consider “QVQLVESGGGLVQAGGSLRLSCAASGFTLQQYTMGWYIQAPGKERELVAAISTSGVRTYYADSVKGRFTISRDNAKNTVYLQMNSLKPEDTAVYYCNAAWVYGIGWYSGYDYWGQGTQVTVSS”, for which the “polyreactivity (PSR sort gate)” value is recorded as “high polyreactivity”. For “QVQLVESGGGLVQAGGSLRLSCAASGFTLRGNAMGWYRQAPGKESELVAAISTGGSTYNADSVKGRFTISRDNAKITVYLQMNSLNPEDTAVYYCARRGWFHYRYYYWGQGSQVTVSS”, the “polyreactivity (PSR sort gate)” value is reported as “high polyreactivity”. To “QVQLVESGGGLVQAGGSLRLSCAASGFTLRRNAMGWYRQAPGKERELVAAISSSGSTYYADSVKGRFTISRDNAKNTVYLQMNSLKPEDTAVYYCAASATYKVRGGYWGQGTQVTVSS” belongs “high polyreactivity”; to “QVQLVESGGGLVQAGGSLRLSCAASGFTLRSNAMGWYRQAPGKERELVASITDGTSTNYADSVKGRFTISRDNAKNTVYLQMNSLKPEDTAVYYCATRHPARRDYWGQGTQVTVSS”, “low polyreactivity”. The result for “QVQLVESGGGLVQAGGSLRLSCAASGFTLRVNAMGWYRQAPGKERELVAAISDSGTNTYYADSVKGRFTISRDNAKNTVYLQMNSLKPEDTAVYYCATAVYLVIFEYDYWGQGTQVTVSS” reads “low polyreactivity”; that for “QVQLVESGGGLVQAGGSLRLSCAASGFTLRVNDMGWYRQAPGKERELVAGITVSGGSTYYADSVKGRFTISRDNAKNTVYLQMNSLKPEDTAVYYCNADNYENATGMDYWGQGTQVTVSS”, “low polyreactivity”; that for “QVQLVESGGGLVQAGGSLRLSCAASGFTLSGNAMGWYRQAPGKERELVAAINGSGGSTYYADSVKGRFTISRDNAKNTVYLQMNSLKPEDTAVYYCAAAGSYGQAYSIFTLDSWGPGTQVTVSS”, “low polyreactivity”.

“QVQLVESGGGLVQAGGSLRLSCAASGFTLSSYVMGWYRQAPGKERELVAAITSSGGSTYYADSVKGRFTISRDNAKNTVYLQMNSLKPEDTAVYYCNAVWWYKLYFDDDYWGQGTQVNVSS”: the “polyreactivity (PSR sort gate)” value was “high polyreactivity”.

“QVQLVESGGGLVQAGGSLRLSCAASGFTLTGNAMGWYRQAPGKERELVAAISRNGGSTFYADSVKGRFTISRDNAKNTVYLQMNSLKPEDTAVYYCNASRFRHSAYKYDSWGQGTQVTVSS”: the “polyreactivity (PSR sort gate)” value was “high polyreactivity”. On to “QVQLVESGGGLVQAGGSLRLSCAASGFTLTLRYAMGLYRQAPGKERELVAAISSGGRTKYADSVKGRFTISRDNAKNTVYLQMNSRKPEDTAVYYCNAVTQREYEEGDYWGQGTQVTVSS”, for which the “polyreactivity (PSR sort gate)” value is “high polyreactivity”. To “QVQLVESGGGLVQAGGSLRLSCAASGFTLTRNAMGWYRQAPGKERELVAAISWSGGTTYYADSVKGRFTISRDNAKNTVYLQMNSLKPEDTADYYCNTASWRAQYYYWGQGTQVTVSS” belongs “high polyreactivity”; to “QVQLVESGGGLVQAGGSLRLSCAASGFTLVKYVMGWYRPAPGKERELVAAINRSGTSTYYADSVKGRFTISRDNAKNTVYLQMNSLKPEDTAVYYCAAERSRNFDWGQGTQVTVSS”, “high polyreactivity”; to “QVQLVESGGGLVQAGGSLRLSCAASGFTLYVNAKGWYRQAPGKERELVAAISWSGGSTYYADSVKGRFTISRDNAKNTVYLQMNSLKPEDTAVYYCNAKYHRRLQWGTRYYYWGQGTQVTVSS”, “high polyreactivity”. The result for “QVQLVESGGGLVQAGGSLRLSCAASGFTSGQYAMGWYRQAPGKERELVAAISWSGGSTYYADSVKGRFTISRDNAKNTVYLQMNSLKPEDTAVYYCAAGKTPQKYGGFNYWGQGTQVTVSS” reads “high polyreactivity”; that for “QVQLVESGGGLVQAGGSLRLSCAASGFTSNYYAMGGYRQAAGKERELVAAITTGGSTHYADSVQGRFTISRDNAKNTVYVQMNSLKPEDTAVYYCAADLKDTRLFPWFCEYDYWGQGTQVTVSS”, “low polyreactivity”.

As to “QVQLVESGGGLVQAGGSLRLSCAASGFTSRYYAMGWYRQAPGKERELVAAISSSGGRTYYADSVKGRFTISRDNAKNTVYLQMNSLKPEDTAVYYCNTGIHARYGGLYGYWGQGTQVTVSS”, the “polyreactivity (PSR sort gate)” value is listed as “high polyreactivity”. As to “QVQLVESGGGLVQAGGSLRLSCAASGFTTAYAMGWYRQAPGKERELVAAISSGGSTYYADSVKGRFTISRDNAKNTVYLQMNSLKPEDTAVYYCATGPYYGYDEFDYWGQGTQVTVSS”, the “polyreactivity (PSR sort gate)” value is on record as “low polyreactivity”. To “QVQLVESGGGLVQAGGSLRLSCAASGFTTRSYAMGWYRQAPGKERELVAAISFSGGRTYYADSVKGRFTISRDNAKNTVYLQMNSLKPEDTAVYYCNARAYTRYSLLDYWGQGTQVTVSS” belongs “high polyreactivity”; to “QVQLVESGGGLVQAGGSLRLSCAASGFTVGYAMGWYRQAPGKERELVAAITRGGGTRTSYADSVKGRFTISRDNAKNTVYLQMNSLKPEDTAVYYCAARRWWSPRTQYDYWGQGTQVTVSS”, “high polyreactivity”; to “QVQLVESGGGLVQAGGSLRLSCAASGFTYFYYAMGSYRQAPGKERELVASISWSGGSTYYADSVKGRFTISRDNAKNTVYLQMNSLKPEDTAVYYCAADVPFGGDYWGQGTQVTVSS”, “low polyreactivity”. Consider “QVQLVESGGGLVQAGGSLRLSCAASGFTYYWNAMGWYRQAPGKERELVAAINWRGTSTYYADSVKGRFTISRDNAKNTVYLQMNSLKPEDTAVYYCNTYGYVEYDWGQGTQVTVSS”, for which the “polyreactivity (PSR sort gate)” value was “high polyreactivity”.

For the sequence “QVQLVESGGGLVQAGGSLRLSCAASGFYLNAMGWYRQAPGKERELVATITSSATNTYYADSVKGRFTISRDNAKNTVYLQMNSLKPEDTAVYYCNARYTSHTHADGVYLYDYWGQGTQVTVSS”, the “polyreactivity (PSR sort gate)” value is “low polyreactivity”. For the sequence “QVQLVESGGGLVQAGGSLRLSCAASGGIFAANAMGWYRQAPGTERELVAAITSVGSTYADSVKGRFTISRDNAKNTVYLQMNSLKPEDTAVSYCAADTESVIVWYEDDYWGQGTQVTVSS”, the “polyreactivity (PSR sort gate)” value is “low polyreactivity”. Regarding “QVQLVESGGGLVQAGGSLRLSCAASGGIFAIYAMGWYRQAPGKEREFVATISWRGGSTYYADSVKGRFTISRDNAKNTVYLQMNSLKPEDTAVYYCAAPHFSYSGGTHDYWGQGTQVTVSS”, the “polyreactivity (PSR sort gate)” value is “high polyreactivity”. “QVQLVESGGGLVQAGGSLRLSCAASGGIFAPYAMGWYRQAPGKERELVADITSDGGSTYYADSVKGRFTISRDNAKNTVYLQMNSLKPEDTAVYYCAAEQRYWWWGHPGDYWGQGTQVTVSS”: the “polyreactivity (PSR sort gate)” value is “low polyreactivity”. The result for “QVQLVESGGGLVQAGGSLRLSCAASGGIFASNAMGWYRQAPGKERELVATITRGGSTNYADSVKGRFTISRDNAKNTVYLQLNSLKPEDTAVYYCAARFYSRAFWPAYYYWGQGTQVTVSS” reads “high polyreactivity”.
